Source: article PMC10840093
Like-named read-outs stand apart in the source and are kept apart here.

Measured: degradation_or_half_life

LSD1: LSD1-3KR (K424, K432, K481)
decreases: ubiquitination at K424 | ubiquitination at K432 | ubiquitination at K481
